Measured values as given in US5851983.
Like-named read-outs stand apart in the source and are kept apart here.

What was measured:
[1] = target: Bovine spleen trypsin (Sigma) (bovine) (UniProt P00760)
[2] = target: Polymorphonuclear leukocyte elastase from human sputum (EPC Co.; Funakoshi Yakuhin) (human) (UniProt P08246)
[3] = target: Calf pancreatic chymotrypsin (Sigma) (calf (bovine)) (UniProt P00766)
[4] = target: Calf pancreatic trypsin (Sigma) (calf (bovine)) (UniProt P00760)
[5] = target: Human plasma kallikrein (human) (UniProt P03952)
[6] = target: Human plasma plasmin (human) (UniProt P00747)
[7] = target: Human plasma thrombin (human) (UniProt P00734)
[8] = target: Porcine pancreatic elastase (Sigma) (porcine) (UniProt P00772)
[9] = target: Polymorphonuclear leukocyte elastase from human sputum (EPC Co.; Funakoshi Yakuhin) (human) (UniProt P08246); remark: listed apart in the source
[10] = target: Bovine spleen trypsin (Sigma) (bovine) (UniProt P00760); remark: listed apart in the source
[11] = target: Polymorphonuclear leukocyte elastase from human sputum (EPC Co.; Funakoshi Yakuhin) (human) (UniProt P08246); remark: listed apart in the source
[12] = target: Bovine spleen trypsin (Sigma) (bovine) (UniProt P00760); remark: listed apart in the source
[13] = target: Polymorphonuclear leukocyte elastase from human sputum (EPC Co.; Funakoshi Yakuhin) (human) (UniProt P08246); remark: listed apart in the source

α1 -AT (Sigma), sequence (P01009 25-418 limits assumed): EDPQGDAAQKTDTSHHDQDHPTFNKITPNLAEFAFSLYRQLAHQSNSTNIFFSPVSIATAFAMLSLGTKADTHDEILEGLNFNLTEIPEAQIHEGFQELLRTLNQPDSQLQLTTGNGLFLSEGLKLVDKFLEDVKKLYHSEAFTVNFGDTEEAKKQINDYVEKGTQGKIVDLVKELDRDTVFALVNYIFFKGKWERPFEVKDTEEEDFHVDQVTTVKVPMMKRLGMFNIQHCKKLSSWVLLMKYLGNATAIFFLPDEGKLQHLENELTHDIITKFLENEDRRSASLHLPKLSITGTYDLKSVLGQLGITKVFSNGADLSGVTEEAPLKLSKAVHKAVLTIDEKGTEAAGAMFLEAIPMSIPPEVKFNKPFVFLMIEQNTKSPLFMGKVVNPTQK
(Arg^59 -Ala^107) SLPI, sequence (chain): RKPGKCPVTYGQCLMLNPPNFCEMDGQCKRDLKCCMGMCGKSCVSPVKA
Human secretory leukoprotease inhibitor (SLPI), sequence (chain): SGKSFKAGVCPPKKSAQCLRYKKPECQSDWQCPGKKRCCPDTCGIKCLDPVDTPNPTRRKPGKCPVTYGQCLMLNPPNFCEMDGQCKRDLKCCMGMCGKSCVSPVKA
Bovine spleen trypsin (Sigma) (bovine), sequence (P00760 24-246): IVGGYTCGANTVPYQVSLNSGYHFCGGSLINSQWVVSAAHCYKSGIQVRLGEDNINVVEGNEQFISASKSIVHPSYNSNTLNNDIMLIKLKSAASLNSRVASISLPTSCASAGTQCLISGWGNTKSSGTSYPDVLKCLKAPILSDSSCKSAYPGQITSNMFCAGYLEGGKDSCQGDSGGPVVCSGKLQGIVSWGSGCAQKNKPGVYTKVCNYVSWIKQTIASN
(Asn^55 -Ala^107) SLPI fragment polypeptide, sequence (chain): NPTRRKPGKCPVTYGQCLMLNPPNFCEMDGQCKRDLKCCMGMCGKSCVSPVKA
(Arg^58 -Ala^107) SLPI, sequence (chain): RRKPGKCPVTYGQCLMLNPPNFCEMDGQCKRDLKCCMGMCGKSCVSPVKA
Calf pancreatic trypsin (Sigma) (calf (bovine)), sequence (P00760 24-246): as the sequence (P00760 24-246) above
Porcine pancreatic elastase (Sigma) (porcine), sequence (P00772 27-266): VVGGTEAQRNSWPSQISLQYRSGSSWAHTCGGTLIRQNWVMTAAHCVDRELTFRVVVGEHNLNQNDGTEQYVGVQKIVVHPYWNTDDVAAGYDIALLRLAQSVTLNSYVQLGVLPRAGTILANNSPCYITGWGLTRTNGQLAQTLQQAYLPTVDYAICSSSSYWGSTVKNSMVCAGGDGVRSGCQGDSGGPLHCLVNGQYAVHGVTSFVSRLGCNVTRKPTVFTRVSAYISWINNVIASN
Human plasma plasmin (human), sequence (P00747 97-810 limits assumed): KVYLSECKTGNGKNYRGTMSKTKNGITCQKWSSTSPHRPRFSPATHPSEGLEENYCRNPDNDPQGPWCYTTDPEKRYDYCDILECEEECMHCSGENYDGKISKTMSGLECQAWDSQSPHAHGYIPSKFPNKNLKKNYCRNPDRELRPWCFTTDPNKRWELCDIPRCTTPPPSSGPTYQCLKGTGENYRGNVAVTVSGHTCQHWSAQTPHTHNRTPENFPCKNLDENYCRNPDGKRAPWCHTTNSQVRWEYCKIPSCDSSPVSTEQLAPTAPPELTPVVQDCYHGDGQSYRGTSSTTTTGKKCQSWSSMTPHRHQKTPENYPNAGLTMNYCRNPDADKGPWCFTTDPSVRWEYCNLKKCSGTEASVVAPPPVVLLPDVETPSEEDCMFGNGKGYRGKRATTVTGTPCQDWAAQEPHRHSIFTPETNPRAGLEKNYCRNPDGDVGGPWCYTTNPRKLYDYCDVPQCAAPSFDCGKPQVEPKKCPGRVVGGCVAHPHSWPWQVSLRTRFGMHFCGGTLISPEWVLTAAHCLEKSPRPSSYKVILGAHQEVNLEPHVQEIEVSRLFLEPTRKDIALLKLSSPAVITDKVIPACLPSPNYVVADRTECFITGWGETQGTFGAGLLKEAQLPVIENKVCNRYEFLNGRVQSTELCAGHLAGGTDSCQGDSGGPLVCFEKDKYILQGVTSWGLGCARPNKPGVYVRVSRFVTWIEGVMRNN

| Substance | concentration of inhibitory protein which exhibits a 50% inhibition [4] [nM] | IC50 Value [10] [nM] | IC50 Value [11] [nM] | IC50 [12] [nM] | IC50 [13] [nM] | other results |
| --- | --- | --- | --- | --- | --- | --- |
| (Arg^58 -Ala^107) SLPI |  |  |  |  |  | IC50 [1]: 2000 nM; IC50 [2]: 12 nM |
| α1 -AT (Sigma) (from UniProt P01009) | 200 |  |  |  |  | concentration of inhibitory protein which exhibits a 50% inhibition [3]: 2 µM; concentration of inhibitory protein which exhibits a 50% inhibition [5]: > 2 µM; concentration of inhibitory protein which exhibits a 50% inhibition [6]: > 2 µM; concentration of inhibitory protein which exhibits a 50% inhibition [7]: > 2 µM; concentration of inhibitory protein which exhibits a 50% inhibition [8]: 300 nM |
| (Arg^59 -Ala^107) SLPI |  | 2500 | 14 | 2000 | 12 |  |

Further lines, with some results ahead:

| concentration of inhibitory protein which exhibits a 50% inhibition [4] [nM] | IC50 Value [10] [nM] | IC50 Value [11] [nM] | IC50 [12] [nM] | IC50 [13] [nM] | Substance | other results |
| --- | --- | --- | --- | --- | --- | --- |
| 130 |  |  |  |  | (Asn^55 -Ala^107) SLPI fragment polypeptide | concentration of inhibitory protein which exhibits a 50% inhibition [9]: 1 nM |
|  | 240 | 16 | 330 | 13 | Human secretory leukoprotease inhibitor (SLPI) |  |
